Reference: patent US20250019427A1
Positions count from the first letter of the chain named.

T1: Human GDF15 Fc (human) (UniProt Q99988)
T1 sequence (chain, biotinylated (EZ-Link Sulfo-NHS-Biotinylation Kit) where printed as biotinylated): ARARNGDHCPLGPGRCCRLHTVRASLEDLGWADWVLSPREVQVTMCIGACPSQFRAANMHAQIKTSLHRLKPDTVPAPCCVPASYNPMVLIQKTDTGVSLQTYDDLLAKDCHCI

B1: Clone E Fab (Fab, V domains shown)
VH: QVQLVQSGAEVKKPGASVKVSCKASGYTFTSYGINWVRQAPGQGLEWMGWITAYSGDTNYAQKLQGRVTMTTDTSTSTAYMELRSLRSDDTAVYYCARGPGQYADVDVWGQGTMVTVSS
VL: DIQMTQSPSSVSASVGDRVTITCRASQGISSWLAWYQQKPGKAPKLLIYAASSLQSGVPSRFSGSGSGTDFTLTISSLQPEDFATYYCQQANSFPITFGGGTKVEIK
B2: Clone J Fab (Fab, V domains shown)
VH: B1 VH with T52D, D57S
VL: B1 VL
B3: Clone P Fab (Fab, V domains shown)
VH: QVQLVQSGAEVKKPGATVKVSCKASGYTFDSYGIHWVRQAPGQGLEWMGWITAYSGDTVYAQKLQGRVTMTTDTSTSTAYMELRSLRSDDTAVYYCARESGQTSSALGPWGQGTLVTVSS
VL: B1 VL with S31R, A91G, N92A, I96L
B4: Clone L Fab (Fab, V domains shown)
VH: QVQLVQSGAEVKKPGASVKVSCKASGYTFASYDIIWVRQAPGQGLEWMGWISALSGDTVYAQKLQGRVTMTTDTSTSTAYMELRSLRSDDTAVYYCARTRHDTSGIRFDYWGQGTLVTVSS
VL: B1 VL with S30D, A91V, N92H
B5: Clone K Fab (Fab, V domains shown)
VH: B4 VH with A30T, S31N, Y32E, D33G, I35S, L54Y, S55T, G56A, V59F, I106L
VL: B1 VL with S30D, A91V, N92H
B6: Clone I Fab (Fab, V domains shown)
VH: B1 VH with S31D, Y32E, N59V
VL: B1 VL
B7: Clone S Fab (Fab, V domains shown)
VH: B1 VH
VL: B1 VL with M4L, S31P
B8: Clone O Fab (Fab, V domains shown)
VH: B3 VH with Y32L, I34M, H35S, W50Y, T52S, A53T, T103Q, S104V, G108D
VL: B1 VL with S31R, A91G, N92A, I96L
B9: Clone T Fab (Fab, V domains shown)
VH: B1 VH
VL: B1 VL with N92S, S93Q
B10: Clone J IgG (antibody, V domains shown)
VH: B1 VH with T52D, D57S
VL: DIQMTQSPSSVSASVGDRVTITCRASQGISSWLAWYQQKPGKAPKLLIYAASSLQSGVPSRFSGSGSGTDFTLTISSLQPEDFATYYCQQANSFPITFGGGTKVEIKR
B11: Clone I IgG (antibody, V domains shown)
VH: B1 VH with S31D, Y32E, N59V
VL: B10 VL
B12: Clone E IgG (antibody, V domains shown)
VH: B1 VH
VL: B10 VL
B13: Clone K IgG (antibody, V domains shown)
VH: B4 VH with A30T, S31N, Y32E, D33G, I35S, L54Y, S55T, G56A, V59F, I106L
VL: B10 VL with S30D, A91V, N92H
B14: Clone L IgG (antibody, V domains shown)
VH: B4 VH
VL: B10 VL with S30D, A91V, N92H
B15: Clone O IgG (antibody, V domains shown)
VH: B3 VH with Y32L, I34M, H35S, W50Y, T52S, A53T, T103Q, S104V, G108D
VL: B10 VL with S31R, A91G, N92A, I96L
B16: Clone P IgG (antibody, V domains shown)
VH: B3 VH
VL: B10 VL with S31R, A91G, N92A, I96L

Biological target: T1, Human GDF15 Fc (human)
Experiment: Octet BLI, Fab monovalent

Kd [nM] | Binder
0.921 | B1
1.28 | B2
3.68 | B3
1.58 | B4
2.11 | B5
1.25 | B6
0.48 | B7
0.216 | B8
0.613 | B9

Biological target: T1, Human GDF15 Fc (human)
Experiment: SPR Biacore, Fab monovalent

Kd [nM] | koff [s⁻¹] | kon [M⁻¹ s⁻¹] | Binder
0.0331 | 8.71e-05 | 2.63e+06 | B1
0.0884 | 0.000404 | 4.57e+06 | B2
0.126 | 0.0021 | 1.66e+07 | B3
0.144 | 0.000576 | 3.99e+06 | B4
0.23 | 0.00112 | 4.87e+06 | B5
0.0672 | 0.000259 | 3.85e+06 | B6
0.0369 | 4.93e-05 | 1.34e+06 | B7
0.0341 | 7.11e-05 | 2.08e+06 | B8
0.0411 | 4.52e-05 | 1.1e+06 | B9

Biological target: T1, Human GDF15 Fc (human)
Experiment: Octet BLI, IgG on tip, avid

Kd [nM] | Binder
0.276 | B10
0.262 | B11
0.278 | B12
0.271 | B13
0.325 | B14
0.379 | B15
0.274 | B16
